Ends that are not written are not given here.
How the values were obtained:
[1] = biological target: T1, WT1STHV biotin labeled HCV core peptide (hepatitis C virus, biotin labeled); assay: EIA; Ab 125 ng/mL captured on anti-mouse Fc; bt-peptide 500 ng/mL
T1 peptide: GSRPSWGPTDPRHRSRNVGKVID

[2] = biological target: T2, Mut1T110N biotin labeled HCV core peptide (hepatitis C virus, biotin labeled); assay: as above
T2 peptide: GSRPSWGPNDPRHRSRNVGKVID

[3] = biological target: T3, Mut6T110S biotin labeled HCV core peptide (hepatitis C virus); assay: as above
[4] = biological target: T4, C113WT biotin labeled HCV core peptide (hepatitis C virus, also: biotin labeled, position not given here); assay: as above
T4 peptide: RGSRPSWGPTD

[5] = biological target: T5, C113T109N biotin labeled HCV core peptide (hepatitis C virus, also: biotin labeled, position not given here); assay: as above
T5 peptide: RGSRPSWGPND

[6] = biological target: T1, WT1STHV biotin labeled HCV core peptide; assay: EIA; Ab 250 ng/mL captured on anti-mouse Fc; bt-peptide 500 ng/mL
[7] = biological target: T2, Mut1T110N biotin labeled HCV core …; assay: as above
[8] = biological target: T3, Mut6T110S biotin labeled HCV core …; assay: as above
[9] = biological target: T4, C113WT biotin labeled HCV core peptide; assay: as above
[10] = biological target: T5, C113T109N biotin labeled HCV core …; assay: as above
[11] = biological target: T1, WT1STHV biotin labeled HCV core peptide; assay: EIA; Ab 500 ng/mL captured on anti-mouse Fc; bt-peptide 500 ng/mL
[12] = biological target: T2, Mut1T110N biotin labeled HCV core …; assay: as above
[13] = biological target: T1, WT1STHV biotin labeled HCV core peptide; assay: EIA; Ab 1000 ng/mL captured on anti-mouse Fc; bt-peptide 500 ng/mL
[14] = biological target: T2, Mut1T110N biotin labeled HCV core …; assay: as above
[15] = biological target: T3, Mut6T110S biotin labeled HCV core …; assay: as above
[16] = biological target: T4, C113WT biotin labeled HCV core peptide; assay: as above
[17] = biological target: T5, C113T109N biotin labeled HCV core …; assay: as above
[18] = biological target: T1, WT1STHV biotin labeled HCV core peptide; assay: EIA; Ab 62.5 ng/mL captured on anti-mouse Fc; bt-peptide 500 ng/mL
[19] = biological target: T2, Mut1T110N biotin labeled HCV core …; assay: as above
[20] = biological target: T3, Mut6T110S biotin labeled HCV core …; assay: as above
[21] = biological target: T4, C113WT biotin labeled HCV core peptide; assay: as above
[22] = biological target: T5, C113T109N biotin labeled HCV core …; assay: as above
[23] = biological target: T1, WT1STHV biotin labeled HCV core peptide; assay: EIA; Ab 3.906 ng/mL captured on anti-mouse Fc; bt-peptide 500 ng/mL
[24] = biological target: T2, Mut1T110N biotin labeled HCV core …; assay: as above
[25] = biological target: T3, Mut6T110S biotin labeled HCV core …; assay: as above
[26] = biological target: T4, C113WT biotin labeled HCV core peptide; assay: as above
[27] = biological target: T5, C113T109N biotin labeled HCV core …; assay: as above

B1: HCV Neo4 monoclonal antibody (antibody, V domains shown)
VH: QIQLKESGPAVIKPSQSLSLTCIVSGFSITSSVYCWQWIRQPPGKGLEWMGRICYDGSVDYSPSITSRGTISRDTSLNKVFFQLSSVTNEDTAMYYCSRENHIDYYDTTYPSFDVWGAGTTVTVSS
VL: DIVLTQSPASLIVSLGQRATISCRASKSVNEYGYTYMHWYQQKPGLPPKLLIYLASNLDSGVPARFSGSGSGTDFTLNIHPVEEEDAATYYCQHSRELPYTFGGGTKLEIKR
signal at 492 nm [1]: 1.93 OD 492 nm | signal at 492 nm [2]: 0.204 OD 492 nm | signal at 492 nm [3]: 1.27 OD 492 nm | signal at 492 nm [4]: 0.0599 OD 492 nm | signal at 492 nm [5]: 0.0858 OD 492 nm | signal at 492 nm [6]: 1.99 OD 492 nm | signal at 492 nm [7]: 0.089 OD 492 nm | signal at 492 nm [8]: 1.15 OD 492 nm | signal at 492 nm [9]: 0.0607 OD 492 nm | signal at 492 nm [10]: 0.111 OD 492 nm | signal at 492 nm [11]: 1.91 OD 492 nm | signal at 492 nm [12]: 0.065 OD 492 nm | signal at 492 nm [13]: 2 OD 492 nm | signal at 492 nm [14]: 0.0678 OD 492 nm | signal at 492 nm [15]: 1.17 OD 492 nm | signal at 492 nm [16]: 0.222 OD 492 nm | signal at 492 nm [17]: 0.0591 OD 492 nm | signal at 492 nm [18]: 1.85 OD 492 nm | signal at 492 nm [19]: 0.139 OD 492 nm | signal at 492 nm [20]: 1.11 OD 492 nm | signal at 492 nm [21]: 0.0626 OD 492 nm | signal at 492 nm [22]: 0.111 OD 492 nm | signal at 492 nm [23]: 0.669 OD 492 nm | signal at 492 nm [24]: 0.0719 OD 492 nm | signal at 492 nm [25]: 0.0847 OD 492 nm | signal at 492 nm [26]: 0.0694 OD 492 nm | signal at 492 nm [27]: 0.0717 OD 492 nm

Reference: US20170052184A1 (published 2017)
